Residue numbers refer to the chain shown, from its start.
Assays:
Test in all cases: EMSA
Rec114C;Mei4N = target: T1, Rec114C;Mei4N (Saccharomyces cerevisiae;Saccharomyces …, UniProt P32841;P29467 375-428;1-43, |); details: EMSA: 25 mM Tris-HCl pH 7.4, 100 mM NaCl, 5 ng DNA, 20 min, room temperature; AFM: 25 mM HEPES-NaOH pH 7.4, 5 mM MgCl2, 50 mM NaCl, 10% glycerol, 30 min, RT …
T1 sequence 1: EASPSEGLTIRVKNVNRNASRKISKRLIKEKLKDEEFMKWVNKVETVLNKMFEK
T1 sequence 2: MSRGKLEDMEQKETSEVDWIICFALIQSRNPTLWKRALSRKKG

[1] = test system: Rec114(325-428);Mei4(1-90) (Saccharomyces cerevisiae;Saccharomyces cerevisiae); details: EMSA: 25 mM Tris-HCl pH 7.4, 100 mM NaCl, 5 ng DNA, 20 min, room temperature; AFM: 25 mM HEPES-NaOH pH 7.4, 5 mM MgCl2, 50 mM NaCl, 10% glycerol, 30 min, RT …
[2] = target: Rec114(386-428);Mei4N (Saccharomyces cerevisiae;Saccharomyces cerevisiae) (UniProt P29467); details: EMSA: 25 mM Tris-HCl pH 7.4, 100 mM NaCl, 5 ng DNA, 20 min, room temperature; AFM: 25 mM HEPES-NaOH pH 7.4, 5 mM MgCl2, 50 mM NaCl, 10% glycerol, 30 min, RT …
[3] = target: Rec114(388-428) K399A/R400A;Mei4N (Saccharomyces cerevisiae;Saccharomyces cerevisiae) (UniProt P29467); details: EMSA: 25 mM Tris-HCl pH 7.4, 100 mM NaCl, 5 ng DNA, 20 min, room temperature; AFM: 25 mM HEPES-NaOH pH 7.4, 5 mM MgCl2, 50 mM NaCl, 10% glycerol, 30 min, RT …
[4] = target: Rec114(388-428) K403A/K407A;Mei4N (Saccharomyces cerevisiae;Saccharomyces cerevisiae) (UniProt P29467); details: EMSA: 25 mM Tris-HCl pH 7.4, 100 mM NaCl, 5 ng DNA, 20 min, room temperature; AFM: 25 mM HEPES-NaOH pH 7.4, 5 mM MgCl2, 50 mM NaCl, 10% glycerol, 30 min, RT …
[5] = target: Rec114(388-428) K417A/K424A;Mei4N (Saccharomyces cerevisiae;Saccharomyces cerevisiae) (UniProt P29467); details: EMSA: 25 mM Tris-HCl pH 7.4, 100 mM NaCl, 5 ng DNA, 20 min, room temperature; AFM: 25 mM HEPES-NaOH pH 7.4, 5 mM MgCl2, 50 mM NaCl, 10% glycerol, 30 min, RT …
[6] = target: Rec114(388-428) R395A/K396A;Mei4N (Saccharomyces cerevisiae;Saccharomyces cerevisiae) (UniProt P29467); details: EMSA: 25 mM Tris-HCl pH 7.4, 100 mM NaCl, 5 ng DNA, 20 min, room temperature; AFM: 25 mM HEPES-NaOH pH 7.4, 5 mM MgCl2, 50 mM NaCl, 10% glycerol, 30 min, RT …
[7] = test system: Rec114(388-428);Mei4(13-43) (Saccharomyces cerevisiae;Saccharomyces cerevisiae); details: EMSA: 25 mM Tris-HCl pH 7.4, 100 mM NaCl, 5 ng DNA, 20 min, room temperature; AFM: 25 mM HEPES-NaOH pH 7.4, 5 mM MgCl2, 50 mM NaCl, 10% glycerol, 30 min, RT …
[8] = target: Rec114(388-428);Mei4N (Saccharomyces cerevisiae;Saccharomyces cerevisiae) (UniProt P29467); details: EMSA: 25 mM Tris-HCl pH 7.4, 100 mM NaCl, 5 ng DNA, 20 min, room temperature; AFM: 25 mM HEPES-NaOH pH 7.4, 5 mM MgCl2, 50 mM NaCl, 10% glycerol, 30 min, RT …
[9] = target: Rec114C;Mei4N-ybbR (Saccharomyces cerevisiae;Saccharomyces cerevisiae) (UniProt P32841); details: C50, unlabeled; EMSA: 25 mM Tris-HCl pH 7.4, 100 mM NaCl, 5 ng DNA, 20 min, room temperature; AFM: 25 mM HEPES-NaOH pH 7.4, 5 mM MgCl2, 50 mM NaCl, 10% glycerol, 30 min, RT …
[10] = target: Rec114C;Mei4N-ybbR-LD650 (Saccharomyces cerevisiae;Saccharomyces cerevisiae) (UniProt P32841); details: C50, single experiment; EMSA: 25 mM Tris-HCl pH 7.4, 100 mM NaCl, 5 ng DNA, 20 min, room temperature; AFM: 25 mM HEPES-NaOH pH 7.4, 5 mM MgCl2, 50 mM NaCl, 10% glycerol, 30 min, RT …
[11] = target: T2, Rec114(325-428);Mei4(1-90) (Saccharomyces cerevisiae;Saccharomyces cerevisiae) (UniProt P32841+P29467); details: EMSA: 25 mM Tris-HCl pH 7.4, 100 mM NaCl, 5 ng DNA, 20 min, room temperature; AFM: 25 mM HEPES-NaOH pH 7.4, 5 mM MgCl2, 50 mM NaCl, 10% glycerol, 30 min, RT …
T2 sequence 1: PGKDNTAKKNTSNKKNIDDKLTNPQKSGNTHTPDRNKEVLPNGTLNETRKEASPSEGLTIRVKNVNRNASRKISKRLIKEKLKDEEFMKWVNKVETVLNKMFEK
T2 sequence 2: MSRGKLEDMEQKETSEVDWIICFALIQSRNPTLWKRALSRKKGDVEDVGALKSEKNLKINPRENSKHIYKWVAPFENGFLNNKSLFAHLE

[12] = target: T3, Rec114(386-428);Mei4N (Saccharomyces cerevisiae;Saccharomyces cerevisiae) (UniProt P32841+P29467); details: EMSA: 25 mM Tris-HCl pH 7.4, 100 mM NaCl, 5 ng DNA, 20 min, room temperature; AFM: 25 mM HEPES-NaOH pH 7.4, 5 mM MgCl2, 50 mM NaCl, 10% glycerol, 30 min, RT …
T3 sequence 1: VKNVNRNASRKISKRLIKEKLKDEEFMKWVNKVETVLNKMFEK
T3 sequence 2: T1 sequence 2

[13] = target: T4, Rec114(388-428) K399A/R400A;Mei4N K399A;R400A (Saccharomyces cerevisiae;Saccharomyces cerevisiae) (UniProt P32841+P29467); details: EMSA: 25 mM Tris-HCl pH 7.4, 100 mM NaCl, 5 ng DNA, 20 min, room temperature; AFM: 25 mM HEPES-NaOH pH 7.4, 5 mM MgCl2, 50 mM NaCl, 10% glycerol, 30 min, RT …
T4 sequence 1: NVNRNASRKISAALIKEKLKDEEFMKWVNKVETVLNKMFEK
T4 sequence 2: T1 sequence 2

[14] = target: T5, Rec114(388-428) K403A/K407A;Mei4N K403A;K407A (Saccharomyces cerevisiae;Saccharomyces cerevisiae) (UniProt P32841+P29467); details: EMSA: 25 mM Tris-HCl pH 7.4, 100 mM NaCl, 5 ng DNA, 20 min, room temperature; AFM: 25 mM HEPES-NaOH pH 7.4, 5 mM MgCl2, 50 mM NaCl, 10% glycerol, 30 min, RT …
T5 sequence 1: T4 sequence 1 with A12K, A13R, K16A, K20A
T5 sequence 2: T1 sequence 2

[15] = target: T6, Rec114(388-428) K417A/K424A;Mei4N K417A;K424A (Saccharomyces cerevisiae;Saccharomyces cerevisiae) (UniProt P32841+P29467); details: EMSA: 25 mM Tris-HCl pH 7.4, 100 mM NaCl, 5 ng DNA, 20 min, room temperature; AFM: 25 mM HEPES-NaOH pH 7.4, 5 mM MgCl2, 50 mM NaCl, 10% glycerol, 30 min, RT …
T6 sequence 1: T4 sequence 1 with A12K, A13R, K30A, K37A
T6 sequence 2: T1 sequence 2

[16] = target: T7, Rec114(388-428) R395A/K396A;Mei4N R395A;K396A (Saccharomyces cerevisiae;Saccharomyces cerevisiae) (UniProt P32841+P29467); details: EMSA: 25 mM Tris-HCl pH 7.4, 100 mM NaCl, 5 ng DNA, 20 min, room temperature; AFM: 25 mM HEPES-NaOH pH 7.4, 5 mM MgCl2, 50 mM NaCl, 10% glycerol, 30 min, RT …
T7 sequence 1: T4 sequence 1 with R8A, K9A, A12K, A13R
T7 sequence 2: T1 sequence 2

[17] = target: T8, Rec114(388-428);Mei4(13-43) (Saccharomyces cerevisiae;Saccharomyces cerevisiae) (UniProt P32841+P29467); details: EMSA: 25 mM Tris-HCl pH 7.4, 100 mM NaCl, 5 ng DNA, 20 min, room temperature; AFM: 25 mM HEPES-NaOH pH 7.4, 5 mM MgCl2, 50 mM NaCl, 10% glycerol, 30 min, RT …
T8 sequence 1: T4 sequence 1 with A12K, A13R
T8 sequence 2: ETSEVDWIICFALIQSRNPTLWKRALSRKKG

[18] = target: T9, Rec114(388-428);Mei4N (Saccharomyces cerevisiae;Saccharomyces cerevisiae) (UniProt P32841+P29467); details: EMSA: 25 mM Tris-HCl pH 7.4, 100 mM NaCl, 5 ng DNA, 20 min, room temperature; AFM: 25 mM HEPES-NaOH pH 7.4, 5 mM MgCl2, 50 mM NaCl, 10% glycerol, 30 min, RT …
T9 sequence 1: T4 sequence 1 with A12K, A13R
T9 sequence 2: T1 sequence 2

[19] = target: T10, Rec114C;Mei4N (Saccharomyces cerevisiae;Saccharomyces cerevisiae) (UniProt P32841+P29467); details: EMSA: 25 mM Tris-HCl pH 7.4, 100 mM NaCl, 5 ng DNA, 20 min, room temperature; AFM: 25 mM HEPES-NaOH pH 7.4, 5 mM MgCl2, 50 mM NaCl, 10% glycerol, 30 min, RT …
T10 sequence 1: T1 sequence 1
T10 sequence 2: T1 sequence 2

[20] = target: T11, Rec114C;Mei4N-ybbR (Saccharomyces cerevisiae;Saccharomyces cerevisiae) (UniProt P32841+P29467); details: EMSA: 25 mM Tris-HCl pH 7.4, 100 mM NaCl, 5 ng DNA, 20 min, room temperature; AFM: 25 mM HEPES-NaOH pH 7.4, 5 mM MgCl2, 50 mM NaCl, 10% glycerol, 30 min, RT …
T11 sequence 1: T1 sequence 1
T11 sequence 2: T1 sequence 2

[21] = target: T12, Rec114C;Mei4N-ybbR-LD650 (Saccharomyces cerevisiae;Saccharomyces cerevisiae) (UniProt P32841+P29467); details: EMSA: 25 mM Tris-HCl pH 7.4, 100 mM NaCl, 5 ng DNA, 20 min, room temperature; AFM: 25 mM HEPES-NaOH pH 7.4, 5 mM MgCl2, 50 mM NaCl, 10% glycerol, 30 min, RT …
T12 sequence 1: T1 sequence 1
T12 sequence 2: T1 sequence 2

[22] = target: T13, mREC114C;mMEI4N (Mus musculus;Mus musculus) (UniProt Q9CWH4+Q8BRM6); details: EMSA: 25 mM Tris-HCl pH 7.4, 100 mM NaCl, 5 ng DNA, 20 min, room temperature; AFM: 25 mM HEPES-NaOH pH 7.4, 5 mM MgCl2, 50 mM NaCl, 10% glycerol, 30 min, RT …
T13 sequence 1: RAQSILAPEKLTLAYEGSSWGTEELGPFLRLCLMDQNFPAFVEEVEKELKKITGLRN
T13 sequence 2: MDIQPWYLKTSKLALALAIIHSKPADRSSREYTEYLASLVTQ

Question: With 150-bp DNA as the substance, how does the K half (Rec114C;Mei4N) read?
Answer: Its K half is 90 nM.

Question: And the K half [1]?
Answer: The K half was 90 nM.

Question: What about the K half [2] of the same substance?
Answer: Its K half is 110 nM.

Question: What about the K half [3] of the same substance?
Answer: Its K half is 2000 nM.

Question: And the K half [4]?
Answer: The K half was 1000 nM.

Question: What about the K half [5] of the same substance?
Answer: The K half was 900 nM.

Question: And the K half [6]?
Answer: Its K half is 1000 nM.

Question: What about the K half [7] of the same substance?
Answer: The K half was 100 nM.

Question: And the K half [8]?
Answer: Its K half is 110 nM.

Question: What about the K half [9] of the same substance?
Answer: Its K half is 90 nM.

Question: And the K half [10]?
Answer: The K half was 90 nM.

Question: What does the source list for “ATCTGGCTCGCCTGACGGGATGCGACGAATTTTCGCCGCCCCATAAAGTACGCCCACGACTCGTTCGCACTGGCCCGTGCCGTGGAGTAGCTCATCTGGGCGTAATTCCGGGAAAGCTGCTCATACGAGACACCCAGCCCGGCAGCGATAT (double strand) [150-bp DNA]”?
Answer: K half [11]: 90 nM; K half [12]: 110 nM; K half [13]: 2000 nM; K half [14]: 1000 nM; K half [15]: 900 nM; K half [16]: 1000 nM; K half [17]: 100 nM; K half [18]: 110 nM; K half [19]: 90 nM; K half [20]: 90 nM; K half [21]: 90 nM; binding [22]: binds more weakly
